Data as given in IntAct's records for PubMed 19855379.

B1: Protein phosphatase 2C 56 (Arabidopsis thaliana (Mouse-ear cress)), P49597 (parent)
chain: MEEVSPAIAGPFRPFSETQMDFTGIRLGKGYCNNQYSNQDSENGDLMVSLPETSSCSVSGSHGSESRKVLISRINSPNLNMKESAAADIVVVDISAGDEINGSDITSEKKMISRTESRSLFEFKSVPLYGFTSICGRRPEMEDAVSTIPRFLQSSSGSMLDGRFDPQSAAHFFGVYDGHGGSQVANYCRERMHLALAEEIAKEKPMLCDGDTWLEKWKKALFNSFLRVDSEIESVAPETVGSTSVVAVVFPSHIFVANCGDSRAVLCRGKTALPLSVDHKPDREDEAARIEAAGGKVIQWNGARVFGVLAMSRSIGDRYLKPSIIPDPEVTAVKRVKEDDCLILASDGVWDVMTDEEACEMARKRILLWHKKNAVAGDASLLADERRKEGKDPAAMSAAEYLSKLAIQRGSKDNISVVVVDLKPRRKLKSKPLN
B2: Abscisic acid receptor PYL1 (Arabidopsis thaliana (Mouse-ear cress)), Q8VZS8 (parent)
chain: MANSESSSSPVNEEENSQRISTLHHQTMPSDLTQDEFTQLSQSIAEFHTYQLGNGRCSSLLAQRIHAPPETVWSVVRRFDRPQIYKHFIKSCNVSEDFEMRVGCTRDVNVISGLPANTSRERLDLLDDDRRVTGFSITGGEHRLRNYKSVTTVHRFEKEEEEERIWTVVLESYVVDVPEGNSEEDTRLFADTVIRLNLQKLASITEAMNRNNNNNNSSQVR

Variants of: B1
Settings: with pyl1_arath PYL1, Q8VZS8

Row | effect of a mutation on the interaction | Variant
1 | disrupting interaction | MEEVSPAIAGPFRPFSETQMDFTGIRLGKGYCNNQYSNQDSENGDLMVSLPETSSCSVSGSHGSESRKVLISRINSPNLNMKESAAADIVVVDISAGDEINGSDITSEKKMISRTESRSLFEFKSVPLYGFTSICGRRPEMEDAVSTIPRFLQSSSGSMLDGRFDPQSAAHFFGVYDGHGGSQVANYCRERMHLALAEEIAKEKPMLCDGDTWLEKWKKALFNSFLRVDSEIESVAPETVGSTSVVAVVFPSHIFVANCGDSRAVLCRGKTALPLSVDHKPDREDEAARIEAAGGKVIQWNGAAVFGVLAMSRSIGDRYLKPSIIPDPEVTAVKRVKEDDCLILASDGVWDVMTDEEACEMARKRILLWHKKNAVAGDASLLADERRKEGKDPAAMSAAEYLSKLAIQRGSKDNISVVVVDLKPRRKLKSKPLN [R304A]
2 | disrupting interaction | MEEVSPAIAGPFRPFSETQMDFTGIRLGKGYCNNQYSNQDSENGDLMVSLPETSSCSVSGSHGSESRKVLISRINSPNLNMKESAAADIVVVDISAGDEINGSDITSEKKMISRTESRSLFEFKSVPLYGFTSICGRRPEMEDAVSTIPRFLQSSSGSMLDGRFDPQSAAHFFGVYDGHGGSQVANYCRERMHLALAEEIAKEKPMLCDGDTWLEKWKKALFNSFLRVDSEIESVAPETVGSTSVVAVVFPSHIFVANCGDSRAVLCRGKTALPLSVDHKPDREDEAARIEAAGGKVIQANGARVFGVLAMSRSIGDRYLKPSIIPDPEVTAVKRVKEDDCLILASDGVWDVMTDEEACEMARKRILLWHKKNAVAGDASLLADERRKEGKDPAAMSAAEYLSKLAIQRGSKDNISVVVVDLKPRRKLKSKPLN [W300A]

More lines, now with the values behind:

Row | Variant | effect of a mutation on the interaction
3 | MEEVSPAIAGPFRPFSETQMDFTGIRLGKGYCNNQYSNQDSENGDLMVSLPETSSCSVSGSHGSESRKVLISRINSPNLNMKESAAADIVVVDISAGDEINGSDITSEKKMISRTESRSLFEFKSVPLYGFTSICGRRPEMEDAVSTIPRFLQSSSGSMLDGRFDPQSAAHFFGVYDGHGGSQVANYCRERMHLALAEEIAKEKPMLCDGDTWLEKWKKALFNSFLRVDSEIESVAPETVGSTSVVAVVFPSHIFVANCGDSRAVLCRGKTALPLSVDHKPDREDEAARIEAAGGKVAQWNGARVFGVLAMSRSIGDRYLKPSIIPDPEVTAVKRVKEDDCLILASDGVWDVMTDEEACEMARKRILLWHKKNAVAGDASLLADERRKEGKDPAAMSAAEYLSKLAIQRGSKDNISVVVVDLKPRRKLKSKPLN [I298A] | disrupting interaction
4 | MEEVSPAIAGPFRPFSETQMDFTGIRLGKGYCNNQYSNQDSENGDLMVSLPETSSCSVSGSHGSESRKVLISRINSPNLNMKESAAADIVVVDISAGDEINGSDITSEKKMISRTESRSLFEFKSVPLYGFTSICGRRPEMEDAVSTIPRFLQSSSGSMLDGRFDPQSAAHFFGVYDGHGGSQVANYCRERMHLALAEEIAKEKPMLCDGDTWLEKWKKALFNSFLRVDSEIESVAPETVGSTSVVAVVFPSHIFVANCGDSRAVLCRGKTALPLSVDHKPDREDEAARIEAAGGKVIQWNGARVFGVLAMSRSIGDRALKPSIIPDPEVTAVKRVKEDDCLILASDGVWDVMTDEEACEMARKRILLWHKKNAVAGDASLLADERRKEGKDPAAMSAAEYLSKLAIQRGSKDNISVVVVDLKPRRKLKSKPLN [Y319A] | decreasing interaction
5 | MEEVSPAIAGPFRPFSETQMDFTGIRLGKGYCNNQYSNQDSENGDLMVSLPETSSCSVSGSHGSESRKVLISRINSPNLNMKESAAADIVVVDISAGDEINGSDITSEKKMISRTESRSLFEFKSVPLYGFTSICGRRPEMADAVSTIPRFLQSSSGSMLDGRFDPQSAAHFFGVYDGHGGSQVANYCRERMHLALAEEIAKEKPMLCDGDTWLEKWKKALFNSFLRVDSEIESVAPETVGSTSVVAVVFPSHIFVANCGDSRAVLCRGKTALPLSVDHKPDREDEAARIEAAGGKVIQWNGARVFGVLAMSRSIGDRYLKPSIIPDPEVTAVKRVKEDDCLILASDGVWDVMTDEEACEMARKRILLWHKKNAVAGDASLLADERRKEGKDPAAMSAAEYLSKLAIQRGSKDNISVVVVDLKPRRKLKSKPLN [E142A] | decreasing interaction

Variants of: B2
Settings: with ABI1, P49597

Row | effect of a mutation on the interaction | Variant
6 | decreasing interaction | MANSESSSSPVNEEENSQRISTLHHQTMPSDLTQDEFTQLSQSIAEFHTYQLGNGRCSSLLAQRIHAPPETVWSVVRRFDRPQIYKHFIKSCNVSEDFEMRVGCTRDVNVISGLPANTSRERLDLLDDDRRVTGFSITGGEHALRNYKSVTTVHRFEKEEEEERIWTVVLESYVVDVPEGNSEEDTRLFADTVIRLNLQKLASITEAMNRNNNNNNSSQVR [R143A]
7 | decreasing interaction | MANSESSSSPVNEEENSQRISTLHHQTMPSDLTQDEFTQLSQSIAEFHTYQLGNGRCSSLLAQRIHAPPETVWSVVRRFDRPQIYKHFIKSCNVSEDFEMRVGCTRDVNVISGLPANTSRERLDLLDDDRRVTGFSITGGEHRLRNYKSVTTVHRFEKEEEEERIWTVVLESYVVDVPEGNSEEDTRLAADTVIRLNLQKLASITEAMNRNNNNNNSSQVR [F189A]

Further lines, the variant ahead of its results:

Row | Variant | effect of a mutation on the interaction
8 | MANSESSSSPVNEEENSQRISTLHHQTMPSDLTQDEFTQLSQSIAEFHTYQLGNGRCSSLLAQRIHAPPETVWSVVRRFDRPQIYKHFIKSCNVSEDFEMRVGCTRDVNVISGLPANTSRERLDLLDDDRRVTGFSITGGEHRARNYKSVTTVHRFEKEEEEERIWTVVLESYVVDVPEGNSEEDTRLFADTVIRLNLQKLASITEAMNRNNNNNNSSQVR [L144A] | disrupting interaction
9 | MANSESSSSPVNEEENSQRISTLHHQTMPSDLTQDEFTQLSQSIAEFHTYQLGNGRCSSLLAQRIHAPPETVWSVVRRFDRPQIYKHFIKSCNVSEDFEMRVGCTRDVNVISGLPANTSRERLDLLDDDRRVTGFSITGGEARLRNYKSVTTVHRFEKEEEEERIWTVVLESYVVDVPEGNSEEDTRLFADTVIRLNLQKLASITEAMNRNNNNNNSSQVR [H142A] | disrupting interaction
